{"source": "patent US7691567B2", "about": "“Methods and compositions relating to fortilin, an anti-apoptotic molecule, and modulators of fortilin” (Board of Regents, the University of Texas System, priority 2000, dated 2010)", "key": {"[1]": {"molecular_target": "FLAG-MCL1 (Homo sapiens, UniProt Q07820)", "sequence (Q07820 whole entry)": "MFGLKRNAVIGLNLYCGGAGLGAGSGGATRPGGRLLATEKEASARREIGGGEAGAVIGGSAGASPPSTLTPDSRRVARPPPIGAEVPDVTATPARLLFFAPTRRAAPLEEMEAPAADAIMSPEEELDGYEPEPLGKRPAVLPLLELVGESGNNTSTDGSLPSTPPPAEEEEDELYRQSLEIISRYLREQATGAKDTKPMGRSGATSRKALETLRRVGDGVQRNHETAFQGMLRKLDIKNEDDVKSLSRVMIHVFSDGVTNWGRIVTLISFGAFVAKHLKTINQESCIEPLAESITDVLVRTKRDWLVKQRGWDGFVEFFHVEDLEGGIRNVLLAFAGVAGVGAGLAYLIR", "format": "binding", "settings": "COS cell lysate, anti-HA immunoprecipitation"}, "[2]": {"molecular_target": "p53 (Homo sapiens, UniProt P04637)", "sequence (P04637 whole entry, species assumed)": "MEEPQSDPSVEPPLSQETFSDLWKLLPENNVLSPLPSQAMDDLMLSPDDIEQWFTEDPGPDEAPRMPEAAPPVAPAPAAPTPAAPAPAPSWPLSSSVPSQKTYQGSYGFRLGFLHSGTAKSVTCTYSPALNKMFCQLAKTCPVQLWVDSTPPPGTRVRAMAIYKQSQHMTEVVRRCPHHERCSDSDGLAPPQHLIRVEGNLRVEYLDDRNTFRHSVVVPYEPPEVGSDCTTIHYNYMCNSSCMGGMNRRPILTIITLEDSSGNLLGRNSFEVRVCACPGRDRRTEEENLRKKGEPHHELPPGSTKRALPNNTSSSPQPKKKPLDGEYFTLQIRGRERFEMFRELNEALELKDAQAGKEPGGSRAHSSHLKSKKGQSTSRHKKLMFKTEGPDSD", "experiment": "Coimmunoprecipitation of fortilin and p53 from U2OS cell lysates", "format": "binding", "design": "endogenous in cells; host or cells: U2OS", "description": "As in example 2, studies were initiated to determine whether p53 and Fortilin specifically interact in U2OS cells. Six million U2OS cells stably expressing either HA-fortilin or HA-only were suspended in lysis-binding-wash buffer (50 mM HEPES, pH7.5, 70 mM KCl, 0.5 mM ATP, 5 mM MgSO4, 1 mM DTT, 0.1% NP40, 2 mg/mL BSA, Aprotinin, PMSF, MG132 and protease inhibitor cocktail). Cells were then mechanically disrupted by nitrogen excavitation method. Cleared total cell lysates were incubated with […] anti-HA antibody (3F10, Roche), followed by the incubation with anti-mouse IgG conjugated to magnetic beads (Dynal USA) and extensive wash with lysis-binding-wash buffer.\nFurther experiments were conducted to determine in vivo immunoprecipitation of fortilin by p53. Twenty million U2OS cells were suspended in lysis-binding buffer (50 mM HEPES, pH7.5, 70 mM KCl, 0.5 mM ATP, 5 mM MgSO4, 1 mM DTT, 0.001% NP40, 2 mg/mL BSA, Aprotinin, PMSF, MG132 and protease inhibitor cocktail). Cells were then mechanically disrupted by nitrogen excavitation method. Cleared total cell lysates were divided equally into two eppendorf tubes. To the first tube, anti-p53 antibody (DO-1, […]) was added, while […] control monoclonal antibody was added to the second tube. After incubation, formed complexes were precipitated by goat anti-mouse IgG conjugated to magnetic beads (Dynal USA), followed by extensive wash. […]"}, "[3]": {"tested_on": "MCL1", "format": "cell-based"}}, "data": [{"substance": "Fortilin-HA: influenza hemagglutinin-tagged Fortilin", "values": [{"measurement": "co-precipitation of FLAG-MCL1 in vivo", "setting": "[1]", "value": "FLAG-MCL1 was co-precipitated only in the presence of immunoprecipitated Fortilin-HA"}, {"measurement": "co-precipitation of fortilin and p53 in vivo", "setting": "[2]", "value": "the presence of fortilin was necessary and sufficient for the co-precipitation of p53"}, {"measurement": "intracellular localization of MCL1", "setting": "[3]", "value": "MCL1 was consistently localized in the nucleus just as it was in the cells transfected with empty vector"}]}]}
